According to publication doi:10.1101/379156, “Probing the Modularity of Megasynthases by Rational Engineering of a Fatty Acid Synthase (FAS) Type I” (bioRxiv, 2018):

Target: the molecule itself
Test: SEC; as a1, but samples not incubated at 37 °C before the SEC run; monomer to dimer

| Protein | stoichiometry N |
| --- | --- |
| mFAS gamma-module, construct 7 (2-1517+1870-2195) (domain or fragment, Mus musculus, UniProt P19096 2-2195, looked up, murine fatty acid synthase 2-2195 with the ER domain deleted (P1517 bridged to S1870); Made from construct 6 as template; also called γ-module) EEVVIAGMSGKLPESENLQEFWANLIGGVDMVTDDDRRWKAGLYGLPKRSGKLKDLSKFDASFFGVHPKQAHTMDPQLRLLLEVSYEAIVDGGINPASLRGTNTGVWVGVSGSEASEALSRDPETLLGYSMVGCQRAMMANRLSFFFDFKGPSIALDTACSSSLLALQNAYQAIRSGECPAALVGGINLLLKPNTSVQFMKLGMLSPDGTCRSFDDSGSGYCRSEAVVAVLLTKKSLARRVYATILNAGTNTDGSKEQGVTFPSGEVQEQLICSLYQPAGLAPESLEYIEAHGTGTKVGDPQELNGITRSLCAFRQAPLLIGSTKSNMGHPEPASGLAALTKVLLSLEHGVWAPNLHFHNPNPEIPALLDGRLQVVDRPLPVRGGNVGINSFGFGGSNVHVILQPNTRQAPAPTAHAALPHLLHASGRTLEAVQDLLEQGRQHSQDLAFVSMLNDIAATPTAAMPFRGYTVLGVEGRVQEVQQVSTNKRPLWFICSGMGTQWRGMGLSLMRLDSFRESILRSDEAVKPLGVKVSDLLLSTDERTFDDIVHAFVSLTAIQIALIDLLTSVGLKPDGIIGHSLGEVACGYADGCLSQREAVLAAYWRGQCIKDAHLPPGSMAAVGLSWEECKQRCPAGVVPACHNSEDTVTISGPQAAVNEFVEQLKQEGVFAKEVRTGGLAFHSYFMEGIAPTLLQALKKVIREPRPRSARWLSTSIPEAQWQSSLARTSSAEYNVNNLVSPVLFQEALWHIPEHAVVLEIAPHALLQAVLKRGVKSSCTIIPLMKRDHKDNLEFFLTNLGKVHLTGINVNPNALFPPVEFPAPRGTPLISPHIKWDHSQTWDVPVAEDFPNGSSSSSATVYSIDASPESPDHYLVDHCIDGRVIFPGTGYLCLVWKTLARSLGLSLEETPVVFENVSFHQATILPKTGTVALEVRLLEASHAFEVSDTGNLIVSGKVYLWEDPNSKLFDHPEVPTPPESASVSRLTQGEVYKELRLRGYDYGPQFQGICEATLEGEQGKLLWKDNWVTFMDTMLQVSILGSSQQSLQLPTRVTAIYIDPATHRQKVYRLKEDTQVADVTTSRCLGITVSGGIHISRLQTTATSRRQQEQLVPTLEKFVFTPHMEAECLSESTALQKELQLCKGLARALQTKATQQGLKAAMLGQEDPPQHGLPRLLAAACQLQLNGNLQLELGEALAQERLLLPEDPLISGLLNSQALKACVDTALENLSTLKMKVAEVLAGEGHLYSRIPALLNTQPMLQLEYTATDRHPQALKDVQTKLQQHDVAQGQWNPSDPAPSSLGALDLLVCNCALATLGDPALALDNMVAALKEGGFLLVHTVLKGHALGETLACLPSEVQPAPSLLSQEEWESLFSRKALHLVGLKRSFYGTALFLCRRAIPQEKPIFLSVEDTSFQWVDSLKSTLATSSSQPVWLTAMDCPTSGVVGLVNCLRKEPGGHRIRCILLSNLSNTSHAPKLDPGSPELQQVLKHDLVMNVYRDGAWGAFRHFQLEQDKPSKTFCPAHKSYIITGGLGGFGLELARWLVLRGAQRLVLTSRSGIRTGYQAKHIREWRRQGIQVLVSTSNVSSLEGARALIAEATKLGPVGGVFNLAMVLRDAMLENQTPELFQDVNKPKYNGTLNLDRATREACPELDYFVAFSSVSCGRGNAGQTNYGFANSTMERICEQRRHDGLPGLAVQWGAIGDVGIVLEAMGTNDTVIGGTLPQRISSCMEVLDLFLNQPHAVLSSFVLAEKKAVAHGDGDTQRDLVKAVAHILGIRDLAGINLDSTLADLGLDSLMGVEVRQILEREHDLVLPMREVRQLTLRKLQEMSSKTDSATDTT | 2 |
| mFAS beta-module, construct 8 (2-858+1104-1517+1870-2195) (domain or fragment, Mus musculus, UniProt P19096 2-2195, looked up, murine fatty acid synthase 2-2195 with the DH domain (S858 linked with S1104) and the ER domain (P1517 bridged to S1870) deleted; Made from construct 7; also called β-module) EEVVIAGMSGKLPESENLQEFWANLIGGVDMVTDDDRRWKAGLYGLPKRSGKLKDLSKFDASFFGVHPKQAHTMDPQLRLLLEVSYEAIVDGGINPASLRGTNTGVWVGVSGSEASEALSRDPETLLGYSMVGCQRAMMANRLSFFFDFKGPSIALDTACSSSLLALQNAYQAIRSGECPAALVGGINLLLKPNTSVQFMKLGMLSPDGTCRSFDDSGSGYCRSEAVVAVLLTKKSLARRVYATILNAGTNTDGSKEQGVTFPSGEVQEQLICSLYQPAGLAPESLEYIEAHGTGTKVGDPQELNGITRSLCAFRQAPLLIGSTKSNMGHPEPASGLAALTKVLLSLEHGVWAPNLHFHNPNPEIPALLDGRLQVVDRPLPVRGGNVGINSFGFGGSNVHVILQPNTRQAPAPTAHAALPHLLHASGRTLEAVQDLLEQGRQHSQDLAFVSMLNDIAATPTAAMPFRGYTVLGVEGRVQEVQQVSTNKRPLWFICSGMGTQWRGMGLSLMRLDSFRESILRSDEAVKPLGVKVSDLLLSTDERTFDDIVHAFVSLTAIQIALIDLLTSVGLKPDGIIGHSLGEVACGYADGCLSQREAVLAAYWRGQCIKDAHLPPGSMAAVGLSWEECKQRCPAGVVPACHNSEDTVTISGPQAAVNEFVEQLKQEGVFAKEVRTGGLAFHSYFMEGIAPTLLQALKKVIREPRPRSARWLSTSIPEAQWQSSLARTSSAEYNVNNLVSPVLFQEALWHIPEHAVVLEIAPHALLQAVLKRGVKSSCTIIPLMKRDHKDNLEFFLTNLGKVHLTGINVNPNALFPPVEFPAPRGTPLISPHIKWDHSQTWDVPVAEDFPNGSSSSSSRRQQEQLVPTLEKFVFTPHMEAECLSESTALQKELQLCKGLARALQTKATQQGLKAAMLGQEDPPQHGLPRLLAAACQLQLNGNLQLELGEALAQERLLLPEDPLISGLLNSQALKACVDTALENLSTLKMKVAEVLAGEGHLYSRIPALLNTQPMLQLEYTATDRHPQALKDVQTKLQQHDVAQGQWNPSDPAPSSLGALDLLVCNCALATLGDPALALDNMVAALKEGGFLLVHTVLKGHALGETLACLPSEVQPAPSLLSQEEWESLFSRKALHLVGLKRSFYGTALFLCRRAIPQEKPIFLSVEDTSFQWVDSLKSTLATSSSQPVWLTAMDCPTSGVVGLVNCLRKEPGGHRIRCILLSNLSNTSHAPKLDPGSPELQQVLKHDLVMNVYRDGAWGAFRHFQLEQDKPSKTFCPAHKSYIITGGLGGFGLELARWLVLRGAQRLVLTSRSGIRTGYQAKHIREWRRQGIQVLVSTSNVSSLEGARALIAEATKLGPVGGVFNLAMVLRDAMLENQTPELFQDVNKPKYNGTLNLDRATREACPELDYFVAFSSVSCGRGNAGQTNYGFANSTMERICEQRRHDGLPGLAVQWGAIGDVGIVLEAMGTNDTVIGGTLPQRISSCMEVLDLFLNQPHAVLSSFVLAEKKAVAHGDGDTQRDLVKAVAHILGIRDLAGINLDSTLADLGLDSLMGVEVRQILEREHDLVLPMREVRQLTLRKLQEMSSKTDSATDTT | 2 |
